{
  "source": "IntAct's records for PubMed 19103756",
  "parents": {"B1": {"name": "Serine/threonine-protein kinase VRK1 (Homo sapiens), Q99986 (parent)", "chain": "MPRVKAAQAGRQSSAKRHLAEQFAVGEIITDMAKKEWKVGLPIGQGGFGCIYLADMNSSESVGSDAPCVVKVEPSDNGPLFTELKFYQRAAKPEQIQKWIRTRKLKYLGVPKYWGSGLHDKNGKSYRFMIMDRFGSDLQKIYEANAKRFSRKTVLQLSLRILDILEYIHEHEYVHGDIKASNLLLNYKNPDQVYLVDYGLAYRYCPEGVHKEYKEDPKRCHDGTIEFTSIDAHNGVAPSRRGDLEILGYCMIQWLTGHLPWEDNLKDPKYVRDSKIRYRENIASLMDKCFPEKNKPGEIAKYMETVKLLDYTEKPLYENLRDILLQGLKAIGSKDDGKLDLSVVENGGLKAKTITKKRKKEIEESKEPGVEDTEWSNTQTEEAIQTRSRTRKRVQK"}},
  "data": [
    {"variants_of": "B1", "conditions": "with plk3_human PLK3, Q9H4B4", "values": [
      {"variant": "MPRVKAAQAGRQSSAKRHLAEQFAVGEIITDMAKKEWKVGLPIGQGGFGCIYLADMNSSESVGSDAPCVVKVEPSDNGPLFTELKFYQRAAKPEQIQKWIRTRKLKYLGVPKYWGSGLHDKNGKSYRFMIMDRFGSDLQKIYEANAKRFSRKTVLQLSLRILDILEYIHEHEYVHGDIKASNLLLNYKNPDQVYLVDYGLAYRYCPEGVHKEYKEDPKRCHDGTIEFTSIDAHNGVAPSRRGDLEILGYCMIQWLTGHLPWEDNLKDPKYVRDSKIRYRENIASLMDKCFPEKNKPGEIAKYMETVKLLDYTEKPLYENLRDILLQGLKAIGSKDDGKLDLAVVENGGLKAKTITKKRKKEIEESKEPGVEDTEWSNTQTEEAIQTRSRTRKRVQK", "note": "[S342A]", "effect of a mutation on the interaction": "disrupting interaction"}
    ]}
  ]
}
